B1: 2M8U (parent)
chain: TKAQVIEAFKVFDRDGNGYVTVDYLRKVLNELGDMMPADEIEEMIYEADPQNSGYVQYETFVGMLFL

Variants of: B1
Test: folding stability dG (cDNA display proteolysis); higher = more stable
Details: PBS, room temperature

Folding stability dG [kcal/mol]: each site, then its substitutions
T1: A 3.13 | W 3.1 | L 3.3 | C 3.76 | E 2.94 | S 3.34 | Y 2.83 | I 3.61 | V 3.32 | N 3.18 | H 3.16 | G 2.88 | P 2.6 | F 2.91 | K 3.48 | Q 3.13 | R 3.33 | M 3.21 | D 2.96
I6: P 1.65 | L 3.66 | R 2.46 | C 3.4 | Y 2.56 | E 2.81 | W 2.18 | K 2.38 | G 2.34 | S 2.25 | A 2.25 | T 2.72 | H 2.76 | V 2.86 | Q 2.31 | D 2.38 | M 3.42 | F 2.6 | N 2.55
K2: W 2.67 | E 3.07 | N 2.56 | D 2.24 | S 2.98 | F 2.94 | P 3.2 | M 3.65 | V 3.4 | R 3.02 | C 3.6 | G 2.52 | Y 3.24 | A 3.47 | L 3.3 | I 3.46 | H 3.11 | T 2.79
A8: P 2.02 | T 2.67 | H 3.02 | M 3.76 | C 3.46 | I 3.5 | S 3.11 | F 3.23 | G 2.64 | N 2.81 | R 3.6 | D 2.49 | K 3.62 | E 2.59 | Q 3.3 | L 3.56 | W 3.56 | Y 3.17 | V 2.84
E7: T 2.53 | D 3.41 | I 3.07 | P 1.91 | R 2.85 | C 3.41 | M 3.13 | G 2.87

— the MegaScale stability set (Tsuboyama et al. 2023)
